Measurements: IntAct's records for PubMed 19037259

B1: Vacuole morphology and inheritance protein 14 (Saccharomyces cerevisiae), Q06708 (parent)
chain: MEKSIAKGLSDKLYEKRKAAALELEKLVKQCVLEGDYDRIDKIIDELCRDYAYALHQPMARNAGLMGLAATAIALGINDVGRYLRNILPPVLACFGDQNDQVRFYACESLYNIAKIAKGEILVYFNEIFDVLCKISADTENSVRGAAELLDRLIKDIVAERASNYISIVNNGSHGLLPAIKTDPISGDVYQEEYEQDNQLAFSLPKFIPLLTERIYAINPDTRVFLVDWLKVLLNTPGLELISYLPSFLGGLFTFLGDSHKDVRTVTHTLMDSLLHEVDRISKLQTEIKMKRLERLKMLEDKYNNSSTPTKKADGALIAEKKKTLMTALGGLSKPLSMETDDTKLSNTNETDDERHLTSQEQLLDSEATSQEPLRDGEEYIPGQDINLNFPEVITVLVNNLASSEAEIQLIALHWIQVILSISPNVFIPFLSKILSVLLKLLSDSDPHITEIAQLVNGQLLSLCSSYVGKETDGKIAYGPIVNSLTLQFFDSRIDAKIACLDWLILIYHKAPNQILKHNDSMFLTLLKSLSNRDSVLIEKALSLLQSLCSDSNDNYLRQFLQDLLTLFKRDTKLVKTRANFIMRQISSRLSPERVYKVISSILDNYNDTTFVKMMIQILSTNLITSPEMSSLRNKLRTCEDGMFFNSLFKSWCPNPVSVISLCFVAENYELAYTVLQTYANYELKLNDLVQLDILIQLFESPVFTRMRLQLLEQQKHPFLHKCLFGILMIIPQSKAFETLNRRLNSLNIWTSQSYVMNNYIRQRENSNFCDSNSDISQRSVSQSKLHFQELINHFKAVSEEDEYSSDMIRLDHGANNKSLLLGSFLDGIDEDKQEIVTPISPMNEAINEEMESPNDNSSVILKDSGSLPFNRNVSDKLKK
B2: Protein VAC14 homolog (Homo sapiens), Q08AM6 (parent)
chain: MNPEKDFAPLTPNIVRALNDKLYEKRKVAALEIEKLVREFVAQNNTVQIKHVIQTLSQEFALSQHPHSRKGGLIGLAACSIALGKDSGLYLKELIEPVLTCFNDADSRLRYYACEALYNIVKVARGAVLPHFNVLFDGLSKLAADPDPNVKSGSELLDRLLKDIVTESNKFDLVSFIPLLRERIYSNNQYARQFIISWILVLESVPDINLLDYLPEILDGLFQILGDNGKEIRKMCEVVLGEFLKEIKKNPSSVKFAEMANILVIHCQTTDDLIQLTAMCWMREFIQLAGRVMLPYSSGILTAVLPCLAYDDRKKSIKEVANVCNQSLMKLVTPEDDELDELRPGQRQAEPTPDDALPKQEGTASGGPDGSCDSSFSSGISVFTAASTERAPVTLHLDGIVQVLNCHLSDTAIGMMTRIAVLKWLYHLYIKTPRKMFRHTDSLFPILLQTLSDESDEVILKDLEVLAEIASSPAGQTDDPGPLDGPDLQASHSELQVPTPGRAGLLNTSGTKGLECSPSTPTMNSYFYKFMINLLKRFSSERKLLEVRGPFIIRQLCLLLNAENIFHSMADILLREEDLKFASTMVHALNTILLTSTELFQLRNQLKDLKTLESQNLFCCLYRSWCHNPVTTVSLCFLTQNYRHAYDLIQKFGDLEVTVDFLAEVDKLVQLIECPIFTYLRLQLLDVKNNPYLIKALYGLLMLLPQSSAFQLLSHRLQCVPNPELLQTEDSLKAAPKSQKADSPSIDYAELLQHFEKVQNKHLEVRHQRSGRGDHLDRRVVL
B3: Vacuole morphology and inheritance protein 14 (Saccharomyces cerevisiae), Q06708 (parent)
chain: B1 chain
partner: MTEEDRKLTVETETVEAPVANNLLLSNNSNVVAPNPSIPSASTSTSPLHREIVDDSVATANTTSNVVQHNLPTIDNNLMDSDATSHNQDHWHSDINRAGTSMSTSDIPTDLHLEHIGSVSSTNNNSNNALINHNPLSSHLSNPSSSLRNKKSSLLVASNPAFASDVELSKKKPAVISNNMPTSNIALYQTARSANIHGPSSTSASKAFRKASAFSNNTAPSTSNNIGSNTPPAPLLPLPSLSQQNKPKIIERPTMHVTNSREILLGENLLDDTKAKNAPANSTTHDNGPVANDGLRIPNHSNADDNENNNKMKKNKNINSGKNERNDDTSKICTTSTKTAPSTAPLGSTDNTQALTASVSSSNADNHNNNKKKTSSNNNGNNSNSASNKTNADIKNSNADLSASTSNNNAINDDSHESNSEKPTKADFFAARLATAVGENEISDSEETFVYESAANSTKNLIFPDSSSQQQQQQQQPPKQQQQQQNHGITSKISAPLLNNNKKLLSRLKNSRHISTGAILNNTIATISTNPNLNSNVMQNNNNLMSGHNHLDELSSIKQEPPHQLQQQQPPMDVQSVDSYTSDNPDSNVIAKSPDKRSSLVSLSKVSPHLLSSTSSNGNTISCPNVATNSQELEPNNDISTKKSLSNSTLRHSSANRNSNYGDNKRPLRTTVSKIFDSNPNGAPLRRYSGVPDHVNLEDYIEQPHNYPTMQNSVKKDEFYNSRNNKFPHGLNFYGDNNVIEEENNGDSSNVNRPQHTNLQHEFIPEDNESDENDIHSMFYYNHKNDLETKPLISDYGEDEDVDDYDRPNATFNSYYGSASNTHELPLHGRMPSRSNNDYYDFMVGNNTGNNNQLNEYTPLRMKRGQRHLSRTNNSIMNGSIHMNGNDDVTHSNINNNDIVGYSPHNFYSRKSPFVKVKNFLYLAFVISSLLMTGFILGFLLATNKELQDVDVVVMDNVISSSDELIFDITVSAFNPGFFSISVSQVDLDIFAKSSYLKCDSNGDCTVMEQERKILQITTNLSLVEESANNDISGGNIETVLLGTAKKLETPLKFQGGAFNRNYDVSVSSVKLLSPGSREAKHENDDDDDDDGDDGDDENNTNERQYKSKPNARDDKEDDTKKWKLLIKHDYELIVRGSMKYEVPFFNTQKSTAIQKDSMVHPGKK
B4: Vacuole morphology and inheritance protein 14 (Saccharomyces cerevisiae), Q06708 (parent)
chain: B1 chain
partner: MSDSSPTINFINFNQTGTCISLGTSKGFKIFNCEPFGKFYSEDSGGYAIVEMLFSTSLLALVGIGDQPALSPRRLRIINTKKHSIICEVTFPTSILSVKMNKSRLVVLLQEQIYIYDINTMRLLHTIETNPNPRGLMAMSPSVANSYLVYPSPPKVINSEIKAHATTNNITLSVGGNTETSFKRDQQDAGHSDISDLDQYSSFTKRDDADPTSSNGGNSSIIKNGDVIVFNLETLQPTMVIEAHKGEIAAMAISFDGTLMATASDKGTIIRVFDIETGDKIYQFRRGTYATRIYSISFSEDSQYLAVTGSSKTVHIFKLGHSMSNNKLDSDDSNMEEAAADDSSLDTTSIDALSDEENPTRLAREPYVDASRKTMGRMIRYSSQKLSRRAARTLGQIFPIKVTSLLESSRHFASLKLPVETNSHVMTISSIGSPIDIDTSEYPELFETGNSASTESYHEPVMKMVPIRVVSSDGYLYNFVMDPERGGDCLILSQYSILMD
B5: Protein VAC14 homolog (Homo sapiens), Q08AM6 (parent)
chain: B2 chain
partner: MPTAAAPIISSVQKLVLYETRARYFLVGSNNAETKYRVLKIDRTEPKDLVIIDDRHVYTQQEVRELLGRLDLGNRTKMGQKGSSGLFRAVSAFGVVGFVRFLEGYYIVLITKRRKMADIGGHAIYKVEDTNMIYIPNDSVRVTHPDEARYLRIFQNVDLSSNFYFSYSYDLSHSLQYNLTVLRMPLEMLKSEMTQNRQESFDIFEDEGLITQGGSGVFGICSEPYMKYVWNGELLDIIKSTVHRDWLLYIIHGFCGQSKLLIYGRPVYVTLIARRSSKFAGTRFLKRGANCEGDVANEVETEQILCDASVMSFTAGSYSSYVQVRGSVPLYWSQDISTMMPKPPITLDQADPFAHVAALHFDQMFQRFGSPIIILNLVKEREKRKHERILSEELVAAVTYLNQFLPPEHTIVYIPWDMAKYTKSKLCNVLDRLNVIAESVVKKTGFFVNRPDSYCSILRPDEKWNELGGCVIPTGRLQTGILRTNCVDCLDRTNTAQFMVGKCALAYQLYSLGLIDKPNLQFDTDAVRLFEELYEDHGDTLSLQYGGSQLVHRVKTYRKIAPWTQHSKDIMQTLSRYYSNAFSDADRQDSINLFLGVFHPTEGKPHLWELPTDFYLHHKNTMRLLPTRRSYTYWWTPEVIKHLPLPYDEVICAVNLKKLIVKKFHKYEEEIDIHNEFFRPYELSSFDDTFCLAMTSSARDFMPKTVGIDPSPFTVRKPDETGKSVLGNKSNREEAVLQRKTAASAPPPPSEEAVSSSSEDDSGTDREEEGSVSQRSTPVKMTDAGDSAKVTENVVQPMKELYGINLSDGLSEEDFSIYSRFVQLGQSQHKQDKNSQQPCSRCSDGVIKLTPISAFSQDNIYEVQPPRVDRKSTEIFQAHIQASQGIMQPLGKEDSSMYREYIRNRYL

Variants of: B1
Settings: with fab1_yeast FAB1, P34756
Chain of fab1_yeast FAB1, P34756 (P34756 whole entry): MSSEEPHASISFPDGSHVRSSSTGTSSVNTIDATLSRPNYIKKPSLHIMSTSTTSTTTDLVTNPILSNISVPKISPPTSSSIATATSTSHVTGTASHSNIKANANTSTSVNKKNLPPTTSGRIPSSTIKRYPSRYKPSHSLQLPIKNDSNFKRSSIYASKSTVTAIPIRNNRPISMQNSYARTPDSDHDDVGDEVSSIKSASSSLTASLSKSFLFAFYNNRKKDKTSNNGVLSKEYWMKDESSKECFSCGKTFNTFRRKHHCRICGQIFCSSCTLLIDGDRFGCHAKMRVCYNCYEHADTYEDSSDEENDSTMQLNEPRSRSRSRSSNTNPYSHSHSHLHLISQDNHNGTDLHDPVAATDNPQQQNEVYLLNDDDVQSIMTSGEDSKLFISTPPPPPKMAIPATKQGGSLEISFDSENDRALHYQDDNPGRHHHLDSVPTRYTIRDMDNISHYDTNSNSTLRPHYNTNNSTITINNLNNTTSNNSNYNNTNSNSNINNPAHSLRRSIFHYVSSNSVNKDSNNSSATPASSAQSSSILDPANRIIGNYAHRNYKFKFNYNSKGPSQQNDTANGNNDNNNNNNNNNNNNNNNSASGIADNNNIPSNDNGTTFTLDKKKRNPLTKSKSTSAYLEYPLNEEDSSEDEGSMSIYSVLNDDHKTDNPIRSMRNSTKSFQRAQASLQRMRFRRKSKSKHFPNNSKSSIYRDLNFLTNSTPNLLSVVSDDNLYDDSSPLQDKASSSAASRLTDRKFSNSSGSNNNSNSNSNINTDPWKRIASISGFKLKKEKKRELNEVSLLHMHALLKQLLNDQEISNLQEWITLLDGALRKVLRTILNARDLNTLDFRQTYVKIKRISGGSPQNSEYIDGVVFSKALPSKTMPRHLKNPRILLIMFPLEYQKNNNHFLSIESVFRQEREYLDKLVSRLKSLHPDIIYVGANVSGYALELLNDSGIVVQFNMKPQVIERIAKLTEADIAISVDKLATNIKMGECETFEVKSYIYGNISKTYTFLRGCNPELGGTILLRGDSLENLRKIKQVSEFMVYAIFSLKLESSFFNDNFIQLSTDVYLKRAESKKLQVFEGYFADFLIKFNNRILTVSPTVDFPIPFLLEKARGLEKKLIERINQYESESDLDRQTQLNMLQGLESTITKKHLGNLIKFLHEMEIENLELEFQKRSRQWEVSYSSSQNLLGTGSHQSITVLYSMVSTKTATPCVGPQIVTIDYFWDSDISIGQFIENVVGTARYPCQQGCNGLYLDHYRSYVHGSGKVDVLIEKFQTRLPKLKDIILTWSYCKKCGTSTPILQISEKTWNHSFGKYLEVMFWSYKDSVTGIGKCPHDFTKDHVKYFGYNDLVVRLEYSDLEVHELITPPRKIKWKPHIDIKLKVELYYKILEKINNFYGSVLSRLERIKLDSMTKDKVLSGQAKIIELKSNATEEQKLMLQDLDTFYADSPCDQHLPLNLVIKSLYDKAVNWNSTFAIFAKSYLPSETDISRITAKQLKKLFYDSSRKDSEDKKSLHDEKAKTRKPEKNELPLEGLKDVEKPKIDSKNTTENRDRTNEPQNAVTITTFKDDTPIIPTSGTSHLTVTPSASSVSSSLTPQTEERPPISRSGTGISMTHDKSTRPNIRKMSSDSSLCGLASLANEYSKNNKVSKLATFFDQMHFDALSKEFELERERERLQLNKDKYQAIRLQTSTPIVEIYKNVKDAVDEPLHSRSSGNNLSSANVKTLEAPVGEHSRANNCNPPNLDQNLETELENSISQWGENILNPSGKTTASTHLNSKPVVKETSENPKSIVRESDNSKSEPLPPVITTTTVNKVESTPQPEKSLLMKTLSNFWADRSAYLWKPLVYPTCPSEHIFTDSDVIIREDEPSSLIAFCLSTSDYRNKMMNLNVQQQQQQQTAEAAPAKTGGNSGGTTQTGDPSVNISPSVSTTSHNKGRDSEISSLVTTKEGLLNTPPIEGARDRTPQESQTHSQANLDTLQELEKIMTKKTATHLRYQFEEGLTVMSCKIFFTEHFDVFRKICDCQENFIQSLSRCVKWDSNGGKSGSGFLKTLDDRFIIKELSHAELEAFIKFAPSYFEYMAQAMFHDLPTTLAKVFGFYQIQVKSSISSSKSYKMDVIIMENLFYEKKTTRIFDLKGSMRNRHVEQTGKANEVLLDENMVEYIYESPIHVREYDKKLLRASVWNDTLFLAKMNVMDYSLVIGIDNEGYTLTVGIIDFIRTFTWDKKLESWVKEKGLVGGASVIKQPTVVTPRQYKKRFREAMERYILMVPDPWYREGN

Variant | effect of a mutation on the interaction
L149R | disrupting interaction

Variants of: B2
Settings: with fyv1_human PIKFYVE

Variant | effect of a mutation on the interaction
L156R | disrupting interaction

Variants of: B3
Settings: with vac7_yeast VAC7, P53950

Variant | effect of a mutation on the interaction
Q101R | disrupting interaction
H56Y | disrupting interaction
L329I | disrupting interaction
R61K | disrupting interaction

Variants of: B3
Settings: with vac7_yeast VAC7, P53950
Remark: another data set of the same source

Variant | effect of a mutation on the interaction
L149R | disrupting interaction

Variants of: B4
Settings: with atg18_yeast ATG18, P43601

Variant | effect of a mutation on the interaction
Q101R | disrupting interaction
H56Y | disrupting interaction
R61K | disrupting interaction
L329I | disrupting interaction

Variants of: B4
Settings: with atg18_yeast ATG18, P43601
Remark: another data set of the same source

Variant | effect of a mutation on the interaction
L149R | disrupting interaction

Variants of: B5
Settings: with fig4_human FIG4, Q92562

Variant | effect of a mutation on the interaction
L156R | disrupting interaction
